We go through 1 molecule from patent US20110301073, “Novel DNA-binding proteins and uses thereof” (Sangamo BioSciences, Inc., published 2011).

The target of data set [1] is T1, TALE13 +79 FokI (Xanthomonas axonopodis (engineered)).
T1 chain: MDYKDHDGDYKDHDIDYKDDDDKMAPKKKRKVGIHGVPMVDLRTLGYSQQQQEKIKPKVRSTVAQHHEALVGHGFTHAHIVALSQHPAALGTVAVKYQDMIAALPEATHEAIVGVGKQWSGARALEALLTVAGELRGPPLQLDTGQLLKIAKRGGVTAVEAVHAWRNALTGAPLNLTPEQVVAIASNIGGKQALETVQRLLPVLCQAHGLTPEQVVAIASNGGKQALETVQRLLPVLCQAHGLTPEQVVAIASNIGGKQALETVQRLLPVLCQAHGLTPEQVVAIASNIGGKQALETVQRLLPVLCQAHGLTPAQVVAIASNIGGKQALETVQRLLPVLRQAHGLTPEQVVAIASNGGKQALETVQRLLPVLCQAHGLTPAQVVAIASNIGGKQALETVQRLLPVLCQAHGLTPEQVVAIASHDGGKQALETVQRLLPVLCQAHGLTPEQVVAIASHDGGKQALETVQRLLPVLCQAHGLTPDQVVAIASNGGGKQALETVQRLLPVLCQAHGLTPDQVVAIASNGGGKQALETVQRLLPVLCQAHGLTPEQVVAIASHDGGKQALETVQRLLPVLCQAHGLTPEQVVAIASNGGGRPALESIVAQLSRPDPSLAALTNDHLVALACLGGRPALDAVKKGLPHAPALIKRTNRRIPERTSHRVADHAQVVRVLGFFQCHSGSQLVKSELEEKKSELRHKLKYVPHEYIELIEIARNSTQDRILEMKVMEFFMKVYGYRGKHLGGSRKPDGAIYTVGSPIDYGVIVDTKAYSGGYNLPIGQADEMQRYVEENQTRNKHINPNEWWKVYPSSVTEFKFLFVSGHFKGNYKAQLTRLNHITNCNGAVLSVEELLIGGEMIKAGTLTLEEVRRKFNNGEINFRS
In words: cleavage_in_vitro; two inverted sites, 16 bp gap; NEB Buffer 2, 37 C. To be noted: tags: FLAG, NLS, chain copies: 2. As to the method:
(§1) TALE domain fusions were also constructed using Fold cleavage half domains. For these examples, wild type FokI half cleavage domains were used so that for nuclease activity, a homodimer must be formed from two of the fusions. For these fusions, the TALE13 DNA binding domain was fused to each FokI half domain by cloning the TALE DNA binding domain into a plasmid adjacent to FokI-specifying sequence. In addition, various linkers were tested for use between the DNA binding domain and the nuclease domain. Linkers L2 and L8 were used which are as follows: L2=GS (SEQ ID NO:71) and L8=[…] (SEQ ID NO:72). The target sites were cloned into a TOPO2.1 target vector (Invitrogen) with varying gap spacings between each target binding site such that the two were separated from each other by 2 to 22 bp. PCR amplification of an approximately 1 kb region of the target vector was done to generate the target DNAs. The TALE DNA binding domains were also truncated as described previously, and are described using the same nomenclature as described above in Examples 2 and 6. The TALE domain nuclease fusion clones were expressed in the TNT Rabbit Reticulocyte Lysate system by adding 5 μL of water containing 250 nanograms of the nuclease fusion clone plasmid to 20 μL of lysate and incubating at 30° C. for 90 minutes.
(§2) The lysate was then used to cleave the target DNAs as follows: 2.5 μL of lysate were added to a 50 μL reaction containing 50 nanograms of PCR-amplified target DNA and a final Buffer 2 (New England Biolabs) concentration of 1×. The cleavage reaction was for one hour at 37° C., followed by a 20 minute heat inactivation stage at 65° C. The reaction was then centrifuged at high speed to separate the target DNA from the lysate, causing the lysate to condense into a pellet in the reaction well. The DNA-containing supernatant was pipetted off and run on an ethidium bromide-stained agarose gel (Invitrogen) to separate intact target DNA from cleaved target DNA. The agarose gel was then analyzed using AlphaEaseFC (Alpha Innotech) software to measure the amount of target DNA present in the large uncleaved DNA band and the two smaller DNA bands resulting from a single cleavage event of the target DNA. The percentage of cleaved DNA out of the total amount of target DNA loaded into the gel represents the percent cleavage in each reaction.

For data set [2], the target named is T2, TALE13 +39 FokI (Xanthomonas axonopodis (engineered)).
T2 chain: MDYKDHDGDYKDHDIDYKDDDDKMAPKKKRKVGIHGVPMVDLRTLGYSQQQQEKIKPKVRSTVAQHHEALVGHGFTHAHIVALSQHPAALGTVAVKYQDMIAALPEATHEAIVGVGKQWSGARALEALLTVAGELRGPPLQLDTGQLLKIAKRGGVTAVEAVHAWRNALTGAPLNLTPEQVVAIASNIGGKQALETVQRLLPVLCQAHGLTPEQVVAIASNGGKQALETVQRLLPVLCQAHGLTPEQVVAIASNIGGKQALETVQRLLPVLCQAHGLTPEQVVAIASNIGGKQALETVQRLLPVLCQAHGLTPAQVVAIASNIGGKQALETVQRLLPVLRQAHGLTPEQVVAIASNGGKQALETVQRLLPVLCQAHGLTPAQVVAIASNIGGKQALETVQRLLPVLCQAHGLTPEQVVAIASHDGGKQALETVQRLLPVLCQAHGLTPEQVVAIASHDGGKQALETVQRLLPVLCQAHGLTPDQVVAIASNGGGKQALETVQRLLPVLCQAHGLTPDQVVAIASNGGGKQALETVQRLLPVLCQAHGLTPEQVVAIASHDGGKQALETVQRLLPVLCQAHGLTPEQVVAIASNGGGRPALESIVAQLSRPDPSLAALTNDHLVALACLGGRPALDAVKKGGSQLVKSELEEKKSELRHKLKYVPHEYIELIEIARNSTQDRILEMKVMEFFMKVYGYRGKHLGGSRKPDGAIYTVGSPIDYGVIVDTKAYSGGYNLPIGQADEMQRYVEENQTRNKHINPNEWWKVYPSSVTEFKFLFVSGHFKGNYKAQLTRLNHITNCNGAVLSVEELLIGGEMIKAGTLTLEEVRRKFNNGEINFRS
The description is as above. To be noted: tags: FLAG, NLS, chain copies: 2. The protocol: as §1, §2

B1: TALE13 target (dsDNA)
DNA 1: TATAAATACCTTCT
DNA 2: AGAAGGTATTTATA
On to B1, for which the activity in data set [1] came out at 56 % cleavage; in data set [2], 100 % cleavage.
